Reference: IntAct's records for PubMed 19407143

B1: Protein phosphatase 2C 56 (Arabidopsis thaliana (Mouse-ear cress)), P49597 (parent)
chain: MEEVSPAIAGPFRPFSETQMDFTGIRLGKGYCNNQYSNQDSENGDLMVSLPETSSCSVSGSHGSESRKVLISRINSPNLNMKESAAADIVVVDISAGDEINGSDITSEKKMISRTESRSLFEFKSVPLYGFTSICGRRPEMEDAVSTIPRFLQSSSGSMLDGRFDPQSAAHFFGVYDGHGGSQVANYCRERMHLALAEEIAKEKPMLCDGDTWLEKWKKALFNSFLRVDSEIESVAPETVGSTSVVAVVFPSHIFVANCGDSRAVLCRGKTALPLSVDHKPDREDEAARIEAAGGKVIQWNGARVFGVLAMSRSIGDRYLKPSIIPDPEVTAVKRVKEDDCLILASDGVWDVMTDEEACEMARKRILLWHKKNAVAGDASLLADERRKEGKDPAAMSAAEYLSKLAIQRGSKDNISVVVVDLKPRRKLKSKPLN
partner: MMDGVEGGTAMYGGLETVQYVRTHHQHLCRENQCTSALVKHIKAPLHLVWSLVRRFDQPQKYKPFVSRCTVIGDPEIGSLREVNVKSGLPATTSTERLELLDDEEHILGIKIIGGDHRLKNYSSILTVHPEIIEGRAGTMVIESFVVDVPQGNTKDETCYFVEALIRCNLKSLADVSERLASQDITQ
B2: Protein phosphatase 2C 77 (Arabidopsis thaliana (Mouse-ear cress)), O04719 (parent)
chain: MDEVSPAVAVPFRPFTDPHAGLRGYCNGESRVTLPESSCSGDGAMKDSSFEINTRQDSLTSSSSAMAGVDISAGDEINGSDEFDPRSMNQSEKKVLSRTESRSLFEFKCVPLYGVTSICGRRPEMEDSVSTIPRFLQVSSSSLLDGRVTNGFNPHLSAHFFGVYDGHGGSQVANYCRERMHLALTEEIVKEKPEFCDGDTWQEKWKKALFNSFMRVDSEIETVAHAPETVGSTSVVAVVFPTHIFVANCGDSRAVLCRGKTPLALSVDHKPDRDDEAARIEAAGGKVIRWNGARVFGVLAMSRSIGDRYLKPSVIPDPEVTSVRRVKEDDCLILASDGLWDVMTNEEVCDLARKRILLWHKKNAMAGEALLPAEKRGEGKDPAAMSAAEYLSKMALQKGSKDNISVVVVDLKGIRKFKSKSLN
partner: B1 partner

Variants of: B1
Details: with pyl9_arath PYL9, Q84MC7

Variant	effect of a mutation on the interaction
MEEVSPAIAGPFRPFSETQMDFTGIRLGKGYCNNQYSNQDSENGDLMVSLPETSSCSVSGSHGSESRKVLISRINSPNLNMKESAAADIVVVDISAGDEINGSDITSEKKMISRTESRSLFEFKSVPLYGFTSICGRRPEMEDAVSTIPRFLQSSSGSMLDGRFDPQSAAHFFGVYDGHDGSQVANYCRERMHLALAEEIAKEKPMLCDGDTWLEKWKKALFNSFLRVDSEIESVAPETVGSTSVVAVVFPSHIFVANCGDSRAVLCRGKTALPLSVDHKPDREDEAARIEAAGGKVIQWNGARVFGVLAMSRSIGDRYLKPSIIPDPEVTAVKRVKEDDCLILASDGVWDVMTDEEACEMARKRILLWHKKNAVAGDASLLADERRKEGKDPAAMSAAEYLSKLAIQRGSKDNISVVVVDLKPRRKLKSKPLN [G180D]	decreasing interaction

Variants of: B2
Details: with pyl9_arath PYL9, Q84MC7

Variant	effect of a mutation on the interaction
MDEVSPAVAVPFRPFTDPHAGLRGYCNGESRVTLPESSCSGDGAMKDSSFEINTRQDSLTSSSSAMAGVDISAGDEINGSDEFDPRSMNQSEKKVLSRTESRSLFEFKCVPLYGVTSICGRRPEMEDSVSTIPRFLQVSSSSLLDGRVTNGFNPHLSAHFFGVYDGHDGSQVANYCRERMHLALTEEIVKEKPEFCDGDTWQEKWKKALFNSFMRVDSEIETVAHAPETVGSTSVVAVVFPTHIFVANCGDSRAVLCRGKTPLALSVDHKPDRDDEAARIEAAGGKVIRWNGARVFGVLAMSRSIGDRYLKPSVIPDPEVTSVRRVKEDDCLILASDGLWDVMTNEEVCDLARKRILLWHKKNAMAGEALLPAEKRGEGKDPAAMSAAEYLSKMALQKGSKDNISVVVVDLKGIRKFKSKSLN [G168D]	disrupting interaction
